Patent US20250277031A1 (BEIJING HANMI PHARMACEUTICAL, published 2025)

Experiments:
[1] = biological target: T1, recombinant rat CD47 (rat, UniProt P97829 19-140, limits assumed); experiment: ELISA, plate coated with 1 µg/mL recombinant rat CD47, anti-human IgG-HRP, OD450
T1 sequence (looked up): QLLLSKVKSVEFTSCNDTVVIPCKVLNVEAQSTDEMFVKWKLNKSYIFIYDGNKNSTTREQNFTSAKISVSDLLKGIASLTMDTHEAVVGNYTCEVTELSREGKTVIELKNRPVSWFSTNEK
Protocol: Species specificity of the chimeric anti-human CD47 mAbs was determined by ELISA. A 96-well high-adsorption ELISA plate was coated with 1 μg/mL of the recombinant human CD47, cynomolgus CD47, rat CD47 and mouse CD47, at 100 μL per well using carbonate buffer solution, pH=9.6 at 4° C. overnight. The plate was washed 5 times with PBST, and then blocked using PBST with 1% BSA, 300 μL/well, and incubated at 25° C. for 1 hour, and then washed 5 times with PBST. The chimeric anti-human CD47 antibody samples serially diluted in PBST with 1% BSA were added, 100 μL/well, incubated at 25° C. for 1 hour, and then washed 5 times with PBST. The horseradish peroxidase-labeled anti-human IgG antibody (Chemicon, catalog number AP309P) diluted 1:10000 in PBST with 1% BSA was then added, 100 μL per well, and incubated at 25° C. for 1 hour. The plate was washed 5 times with PBST. The colorimetric substrate TMB was added, 100 μL/well, and developed at room temperature for 10 minutes. 1M H₂SO₄ was added, 100 μL/well, to stop the development. The absorbance at 450 nm was read on a microplate reader.

[2] = biological target: T2, recombinant human PD1 (ACROBiosystems) (human, UniProt Q15116 25-167); experiment: ELISA, plate coated with 1 µg/mL recombinant human protein, anti-human IgG-HRP, OD450; antibody concentration not given
T2 construct: counted here as a CD28 family member
T2 sequence (Q15116 25-167 limits assumed): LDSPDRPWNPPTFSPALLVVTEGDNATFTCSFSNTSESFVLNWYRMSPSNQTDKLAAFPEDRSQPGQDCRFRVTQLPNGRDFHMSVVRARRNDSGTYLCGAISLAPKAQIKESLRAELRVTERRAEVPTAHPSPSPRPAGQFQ
Protocol: (§1) Binding specificity of the chimeric anti-human CD47 mAbs was determined by ELISA. A 96-well high-adsorption ELISA plate was coated with 1 μg/mL of the recombinant human PD1, CD28, CTLA4, ICOS, BTLA, CD47, PD-L2, CD80, CD86, B7-H2, CD47, SIRPα and SIRPγ (all from ACROBiosystems), at 100 μL per well using carbonate buffer solution, pH=9.6 at 4° C. overnight. The plate was washed 5 times with PBST, and then blocked using PBST with 1% BSA, 300 μL/well, and incubated at 25° C. for 1 hour, and then washed 5 times with PBST. The chimeric anti-human CD47 mAb samples serially diluted in PBST with 1% BSA and the control CC-90002 and the isotype control were added, 100 μL/well, incubated at 25° C. for 1 hour, and then washed 5 times with PBST. The horseradish peroxidase-labeled anti-human IgG antibody (Chemicon, catalog number AP309P) diluted 1:10000 in PBST with 1% BSA was then added, 100 μL per well, and incubated at 25° C. for 1 hour. The plate was washed 5 times with PBST. The colorimetric substrate TMB was added, 100 μL/well, and developed at room temperature for 10 minutes. 1M H₂SO₄ was added, 100 μL/well, to stop the development. The absorbance at 450 nm was read on a microplate reader.

[3] = biological target: T3, recombinant human CD28 (ACROBiosystems) (human, UniProt P10747 19-152); experiment: as above
T3 construct: counted here as a CD28 family member
Protocol: as §1

[4] = biological target: T4, recombinant human ICOS (ACROBiosystems) (human, UniProt Q9Y6W8 21-140, limits assumed); experiment: as above
T4 construct: counted here as a CD28 family member
T4 sequence (looked up): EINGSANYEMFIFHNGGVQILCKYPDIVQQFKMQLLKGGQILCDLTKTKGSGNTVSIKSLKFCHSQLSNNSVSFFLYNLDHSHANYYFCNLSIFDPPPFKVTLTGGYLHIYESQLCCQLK
Protocol: as §1

[5] = biological target: T5, recombinant human PD-L2 (ACROBiosystems) (human, UniProt Q9BQ51 20-219, limits assumed); experiment: as above
T5 construct: counted here as a B7 family member
T5 sequence (looked up): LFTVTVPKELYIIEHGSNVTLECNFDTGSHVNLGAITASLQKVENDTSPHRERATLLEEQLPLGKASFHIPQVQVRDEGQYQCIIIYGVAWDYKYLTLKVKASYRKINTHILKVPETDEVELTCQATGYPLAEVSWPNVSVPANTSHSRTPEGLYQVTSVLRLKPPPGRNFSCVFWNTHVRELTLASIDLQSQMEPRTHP
Protocol: as §1

[6] = biological target: T6, recombinant human CD80 (ACROBiosystems) (human, UniProt P33681 35-242); experiment: as above
T6 construct: counted here as a B7 family member
T6 sequence (looked up): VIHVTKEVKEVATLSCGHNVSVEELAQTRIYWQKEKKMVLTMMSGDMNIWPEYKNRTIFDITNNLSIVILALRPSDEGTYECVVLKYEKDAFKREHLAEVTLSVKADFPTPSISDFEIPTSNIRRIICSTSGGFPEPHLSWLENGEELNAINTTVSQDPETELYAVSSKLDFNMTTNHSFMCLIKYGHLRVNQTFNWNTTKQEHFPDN
Protocol: as §1

[7] = biological target: T7, recombinant human CD86 (ACROBiosystems) (human, UniProt P42081 26-247, limits assumed); experiment: as above
T7 construct: counted here as a B7 family member
T7 sequence (looked up): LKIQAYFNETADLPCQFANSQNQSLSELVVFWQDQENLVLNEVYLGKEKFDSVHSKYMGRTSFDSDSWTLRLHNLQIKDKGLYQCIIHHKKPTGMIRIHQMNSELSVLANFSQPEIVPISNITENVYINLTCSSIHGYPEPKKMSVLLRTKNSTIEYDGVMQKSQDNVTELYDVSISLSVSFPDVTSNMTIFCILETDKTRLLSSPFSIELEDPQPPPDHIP
Protocol: as §1

[8] = biological target: T8, B7-H1 (human, UniProt Q9NZQ7); experiment: as above
T8 construct: recombinant protein; also called PD-L1
T8 sequence (Q9NZQ7 19-238 limits assumed): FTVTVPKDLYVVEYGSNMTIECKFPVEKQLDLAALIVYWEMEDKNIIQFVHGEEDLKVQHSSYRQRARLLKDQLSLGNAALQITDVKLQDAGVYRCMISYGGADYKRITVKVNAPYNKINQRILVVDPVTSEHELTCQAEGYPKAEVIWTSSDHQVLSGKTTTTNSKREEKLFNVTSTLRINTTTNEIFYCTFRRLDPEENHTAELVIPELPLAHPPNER

B1: chimeric anti-human CD47 monoclonal antibody mAb-18-5 (antibody, human IgG1, kappa)
heavy: not shown
light: DIVMTQSQKFMSTSVGDRVSITCKASQNVRTSIAWYQQKSGQSPKTLIYLASNRHTGVPDRFTGSGSGTDFTLTISNVQSEDLADYFCLQHWNYPFTFGSGTKLEIKRTVAAPSVFIFPPSDEQLKSGTASVVCLLNNFYPREAKVQWKVDNALQSGNSQESVTEQDSKDSTYSLSSTLTLSKADYEKHKVYACEVTHQGLSSPVTKSFNRGEC
B1: no binding (tested: about 20 nM) [1]; no binding [2]; no binding [3]. B1: no binding [4]; no binding [5]; no binding [6]. B1: no binding [7]; no binding [8].
